Measurements published in patent publication US20160169885A1.

Columns and labels:
[1] = molecular target: Ac-N-Asp-Gly-Asp-Ala-Gly-Tyr-Ala-Gly-Leu-Arg-Gly-Ala-Gly-diamino-ethyl-Bodipy FL; experiment: cell-based or functional assay
[2] = test system: Ac-N-Asp-Gly-Asp-Ala-Gly-Tyr-Ala-Gly-Leu-Arg-Gly-Ala-Gly-diamino-ethyl-Bodipy FL

Row | detection limit of the cleavage products in whole rat blood (reaction in 1×PBS, then mixed with inhibitor-treated blood), agarose gel [1] | Substance | cleavage of the substrate, agarose gel electrophoresis, 1×PBS [2]
1 | 50 nM | bovine pancreatic trypsin (from UniProt P00760 24-246) (enzyme) | –
2 | – | bovine pancreatic α-chymotrypsin | after cleavage by α-chymotrypsin, migrates as two bands toward the cathode, representing a primary ... and a secondary ... α-chymotrypsin cleavage product
